# Laboratory results taken from patent US11524046B2, “Biofilm prevention, disruption and treatment with bacteriophage lysin” (priority 2012, dated 2022).
# B1: PlySs2: bacteriophage lysin derived from Streptococcus suis, amino acid sequence of FIG. 5 / SEQ ID NO: 1; CHAP and SH3 domains (protein, listed as Streptococcus suis)
# chain: MTTVNEALNNVRAQVGSGVSVGNGECYALASWYERMISPDATVGLGAGVGWVSGAIGDTISAKNIGSSYNWQANGWTVSTSGPFKAGQIVTLGATPGNPYGHVVIVEAVDGDRLTILEQNYGGKRYPVRNYYSAASYRQQVVHYITPPGTVAQSAPNLAGSRSYRETGTMTVTVDALNVRRAPNTSGEIVAVYKRGESFDYDTVIIDVNGYVWVSYIGGSGKRNYVATGATKDGKRFGNAWGTFK
# How the values were obtained:
# Staphylcoccus aureus = assay: MIC of PlySs2, susceptible and non-susceptible bacterial strains; format: cell-based
# [1] = tested on: Streptococcus pyogenes, Group A; assay: as above; format: cell-based; conditions: Group A (54)
# [2] = tested on: Staphylococcus lugdiensis; assay: as above; format: cell-based; conditions: Staphylococcus lugdiensis (10)
# [3] = tested on: Staphylococcus epidermidis; assay: as above; format: cell-based; conditions: Staphylococcus epidermidis (11)
# Listeria monocytogenes = assay: as above; format: cell-based; conditions: Listeria monocytogenes (12)
# [4] = tested on: Antibiotic-Resistant Staphylococcus aureus; assay: MIC of PlySs2 against antibiotic-resistant S. aureus; format: cell-based; design: unit not given here
# S. aureus strains = assay: PlySs2 and antibiotic MIC, broth microdilution, 80% growth inhibition (CLSI M07-A9); format: cell-based
# [5] = tested on: methicillin resistant S. aureus MRSA strain ATCC BAA-42; assay: MIC by broth microdilution (CLSI M07-A9) against strain ATCC BAA-42; format: cell-based
# [6] = tested on: MRSA strains CFS 553 (ATCC 43300) and CFS 992 (JMI 5381); assay: MIC of PlySs2 against additional MRSA strains; format: cell-based, S. aureus
# staphylococci = assay: PlySs2 stability at 37° C. in Lactated Ringer's solution, residual lytic activity; format: physicochemical; conditions: 1X MIC
# Experimental: To determine the stability of PlySs2 in a simulated catheter setting, PlySs2 was incubated at various concentrations in Lactated Ringer's solution at 37° C. After 7 days, the lytic activity of PlySs2 was assessed by adding 1×10^5 staphylococci, incubating for 4 hours, then treating with proteinase K to remove residual PlySs2, and serial dilution and plating for viability. The resulting CFU value for each condition was divided by 1×10^5 to determine the % Loss of Activity.
# biofilms of BAA-42 MRSA = assay: Biofilm eradication in 24-well plates, crystal violet staining; format: cell-based, S. aureus
# [7] = tested on: S. epidermidis (strain CFS 313 NRS34) biofilm; assay: S. epidermidis catheter biofilm titration, methylene blue staining; format: cell-based; conditions: MIC 8 ug/ml
# Experimental: S. epidermidis biofilms in catheters were treated with PlySs2 and evaluated using methods similarly as described above for the S. aureus studies.
# The results of S. epidermidis (strain CFS 313 NRS34, which is a vancomycin intermediate sensitive S. epidermidis (VISE) strain) biofilm studies on catheters treated with PlySs2 at 10×MIC and below are shown in FIG. 17. S. epidermidis biofilm is destroyed at PlySs2 concentrations down to 0.1×MIC. The MIC here is 8 ug/ml.
# [8] = tested on: S. aureus MRSA strain BAA-42; assay: Biofilm prevention assay, 24 well plate, crystal violet; format: cell-based; conditions: added with bacteria, 6 hours
# [9] = tested on: MRSA strains CFS 553 (ATCC 43300) and CFS 992 (JMI 5381) biofilms; assay: Catheter biofilm titration of additional MRSA strains, methylene blue staining; format: cell-based, S. aureus; conditions: 4 hours
# [10] = tested on: biofilms of MRSA strain CFS 218 (MRSA strain ATCC BAA-42); assay: Scanning electron microscopy of treated catheter biofilms; format: cell-based, S. aureus; conditions: 1×MIC (32 ug/ml)
# Source text: Biofilms were generated on catheter tubing (PVC with DEHP as plasticizer) as above and evaluated for PlySs2 sensitivity by scanning electron microscopy (SEM). […] After fixation on the catheter surface, samples were further processed and analyzed by scanning electron microscopy at 5000× magnification (FIGS. 21A-21C). Treatment with buffer alone (ie, Lactated Ringer's Solution alone) is included as a control.
# Enterococcus faecalis = Enterococcus faecalis (17)
# Enterococcus faecium = Enterococcus faecium (5)
# Escherichia coli = Escherichia coli (6)
# Pseudomonas aeruginosa = Pseudomonas aeruginosa (5)
# Lactobacillus spp. = conditions: N 6
# Lactococcus spp. = conditions: N 3
# [11] = tested on: MRSA biofilms grown on catheters (strain ATCC BAA-42); assay: Catheter biofilm eradication in vitro, methylene blue staining
molecule,measurement,setting,value
B1,MIC 50%,Staphylcoccus aureus; Methicillin resistant (120),4 µg/mL
same,MIC 90%,Staphylcoccus aureus; Methicillin resistant (120),8 µg/mL
same,MIC Range,Staphylcoccus aureus; Methicillin resistant (120),1 to 16 µg/mL
same,MIC 50%,Staphylcoccus aureus; Methicillin susceptible (103),4 µg/mL
same,MIC 90%,Staphylcoccus aureus; Methicillin susceptible (103),8 µg/mL
same,MIC Range,Staphylcoccus aureus; Methicillin susceptible (103),1 to 16 µg/mL
same,MIC 50%,[1],2 µg/mL
same,MIC 90%,[1],8 µg/mL
same,MIC Range,[1],0.5 to 8 µg/mL
same,MIC 50%,[2],8 µg/mL
same,MIC 90%,[2],8 µg/mL
same,MIC Range,[2],8 µg/mL
same,MIC 50%,[3],128 µg/mL
same,MIC 90%,[3],512 µg/mL
same,MIC Range,[3],4 to 512 µg/mL
same,MIC 50%,Listeria monocytogenes,128 µg/mL
same,MIC 90%,Listeria monocytogenes,512 µg/mL
same,MIC Range,Listeria monocytogenes,1 to 512 µg/mL
same,MIC 50%,[4]; Daptomycin-resistant (8),2
same,MIC 90%,[4]; Daptomycin-resistant (8),4
same,MIC Range,[4]; Daptomycin-resistant (8),2-4
same,MIC 50%,[4]; Linezolid-resistant (5),2
same,MIC 90%,[4]; Linezolid-resistant (5),2
same,MIC Range,[4]; Linezolid-resistant (5),2-4
same,MIC 50%,[4]; Vancomycin-intermediate (31),8
same,MIC 90%,[4]; Vancomycin-intermediate (31),32
same,MIC Range,[4]; Vancomycin-intermediate (31),1-64
same,MIC 50%,[4]; Vancomycin-resistant (14),2
same,MIC 90%,[4]; Vancomycin-resistant (14),4
same,MIC Range,[4]; Vancomycin-resistant (14),1-4
same,MIC90,S. aureus strains; DRSA (n = 8),0.15 µM
same,MIC90,S. aureus strains; LRSA (n = 5),0.08 µM
same,MIC90,S. aureus strains; MRSA (n = 45),0.15 µM
same,MIC90,S. aureus strains; MSSA (n-28),0.15 µM
same,MIC90,S. aureus strains; VISA (n = 10),1.2 µM
same,MIC90,S. aureus strains; VRSA (n = 14),0.08 µM
same,MIC value,"[5]; ATCC BAA-42, in the absence of reducing agent",32 µg/mL
same,Minimally inhibitory concentration (MIC),"[5]; ATCC BAA-42, in the presence of reducing agent (such as DTT or BMS)",16 µg/mL
same,1×MIC,[6]; strain ATCC 4330,16 µg/mL
same,1×MIC,[6]; strain JMI 5381,32 µg/mL
same,% LOSS OF ACTIVITY (7 days),staphylococci,58.3%
same,biofilm dissolution,"biofilms of BAA-42 MRSA; 3.2 μg/ml (1/10×MIC), 4 hours",Significant dissolution
same,time by which full clearance was observed,biofilms of BAA-42 MRSA; 0.01×MIC,≤ 24 h
same,biofilm clearance,"biofilms of BAA-42 MRSA; 0.01×MIC, 4 hours",partial clearance
same,time by which the biofilm is cleared,biofilms of BAA-42 MRSA; 0.1×MIC,≤ 4 h
same,biofilm dissolution,"biofilms of BAA-42 MRSA; 0.32 (1/100×MIC), 4 hours",some dissolution
same,time by which the biofilm is cleared,biofilms of BAA-42 MRSA; 1×MIC 32 μg/ml,≤ 2 h
same,lowest concentration at which biofilm is destroyed,[7],0.1 ×MIC
same,prevention of biofilm formation,[8]; 0.1×MIC,effectively and completely prevent
same,prevention of biofilm formation,[8]; 1×MIC (32 ug/ml),effectively and completely prevent
same,catheter biofilm eradication,"[9]; CFS 553 (ATCC 43300), 0.01×MIC",significantly reduced
same,catheter biofilm eradication,"[9]; CFS 553 (ATCC 43300), 10×MIC, 1×MIC, and 0.1×MIC",eradicated and fully dispersed
same,catheter biofilm eradication,"[9]; CFS 992 (JMI 5381), 0.01×MIC",significantly reduced
same,catheter biofilm eradication,"[9]; CFS 992 (JMI 5381), 10×MIC, 1×MIC, and 0.1×MIC",eradicated and fully dispersed
same,biofilm on catheter surface by SEM,[10]; 30 seconds,rapidly diminishes
same,biofilm on catheter surface by SEM,[10]; 15 minutes,almost completely removes
same,MIC 50%,Enterococcus faecalis,>512 µg/mL
same,MIC 90%,Enterococcus faecalis,>512 µg/mL
same,MIC 50%,Enterococcus faecium,>512 µg/mL
same,MIC 90%,Enterococcus faecium,>512 µg/mL
same,MIC 50%,Escherichia coli,>512 µg/mL
same,MIC 90%,Escherichia coli,>512 µg/mL
same,MIC Range,Escherichia coli,>512 µg/mL
same,MIC 50%,Pseudomonas aeruginosa,>512 µg/mL
same,MIC 90%,Pseudomonas aeruginosa,>512 µg/mL
same,MIC Range,Pseudomonas aeruginosa,>512 µg/mL
same,CF-301 MIC,Lactobacillus spp.,>512 µg/mL
same,CF-301 MIC,Lactococcus spp.,>512 µg/mL
same,time of full removal of stainable biofilm,[11]; 1×MIC (32 ug/mL),≤ 60 min
same,biofilm clearance from the catheter,"[11]; 1×MIC, 24 hours",completely cleared
